Reference: paper PMC9352680, “A comprehensive thermodynamic model for RNA binding by the Saccharomyces cerevisiae Pumilio protein PUF4”

The binders below were run against T1, PUF4 RNA-binding domain (Saccharomyces cerevisiae, UniProt P25339 537-888) (assay: Mg; RNA-MaP; 20 mM Na-HEPES pH 7.4, 30 mM KOAc, 0.75 mM MgCl2, 0.1% Tween-20, 5% glycerol, 0.1 mg/mL BSA, 2 mM DTT; 25 C; 0.0125-409.6 nM protein). Conditions: tags: N-His6-TEV cleaved; C-SNAP kept, Cy3B-labelled; label: tethered on chip by stalled RNA polymerase.
T1 sequence: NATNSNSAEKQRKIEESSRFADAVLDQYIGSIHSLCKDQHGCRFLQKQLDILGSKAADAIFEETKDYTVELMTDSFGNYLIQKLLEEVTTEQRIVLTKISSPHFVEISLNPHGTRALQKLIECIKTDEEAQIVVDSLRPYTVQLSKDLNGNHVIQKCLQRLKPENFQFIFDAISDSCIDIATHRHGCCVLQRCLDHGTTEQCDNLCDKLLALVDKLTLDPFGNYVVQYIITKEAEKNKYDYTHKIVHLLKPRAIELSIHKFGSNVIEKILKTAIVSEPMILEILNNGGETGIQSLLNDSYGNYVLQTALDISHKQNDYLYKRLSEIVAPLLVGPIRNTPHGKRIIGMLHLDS

Row | Binder | Kd
1 | UCUCUUGGUAUAUUCUCUCUU (ssRNA) [Ib_S1_P4E.1_K4.1_C4.1_H4.1_[T1G]_A4.1_F4.1_[A9C]_T4.1] | > 2300 nM
2 | UCUCUUCGUAUAUUCUCUCUU (ssRNA) [Ib_S1_P4E.1_K4.1_C4.1_H4.1_[T1C]_A4.1_F4.1_[A9C]_T4.1] | 1140 nM
3 | Ic_S2_P5E.1_K5.1_C5.1_H5.1_A5.1_[T5G]_[A7C]_F5.1_[T8G]_[T9C]_[A10C]_T5.1 (ssRNA) RNA: UUUGAUUAAUAUGAUAUCGUUCUUUCUUGUAGUCGCCUUCUUUCUCGAUAUCAUAUUAAUCUUU | 1490 nM
4 | Ic_S2_P5E.1_K5.1_C5.1_H5.1_A5.1_[T5C]_[T6A]_[A7T]_F5.1_[T8A]_[T9G]_[A10T]_T5.1 (ssRNA) RNA: UUUGAUUAAUAUGAUAUCGUUCUUUCUUGUACAUAGUUUCUUUCUCGAUAUCAUAUUAAUCUUU | 5.17 nM
5 | Ic_S2_P5E.1_K5.1_C5.1_H5.1_A5.1_[T5G]_[T6C]_F5.1_[T8C]_[A10T]_T5.1 (ssRNA) RNA: UUUGAUUAAUAUGAUAUCGUUCUUUCUUGUAGCACUUUUCUUUCUCGAUAUCAUAUUAAUCUUU | 99.7 nM
6 | Ic_S2_P5E.1_K5.1_C5.1_H5.1_A5.1_[T6G]_[A7T]_F5.1_[T8G]_[T9C]_[A10C]_T5.1 (ssRNA) RNA: UUUGAUUAAUAUGAUAUCGUUCUUUCUUGUAUGUGCCUUCUUUCUCGAUAUCAUAUUAAUCUUU | 49 nM
7 | Ic_S2_P5E.1_K5.1_C5.1_H5.1_A5.1_[T5C]_[A7G]_F5.1_[T8G]_T5.1 (ssRNA) RNA: UUUGAUUAAUAUGAUAUCGUUCUUUCUUGUACUGGUAUUCUUUCUCGAUAUCAUAUUAAUCUUU | 38.2 nM
8 | Ic_S2_P5E.1_K5.1_C5.1_H5.1_A5.1_[T5A]_[A7C]_F5.1_[T8C]_[T9G]_[A10C]_T5.1 (ssRNA) RNA: UUUGAUUAAUAUGAUAUCGUUCUUUCUUGUAAUCCGCUUCUUUCUCGAUAUCAUAUUAAUCUUU | 1200 nM
9 | Ic_S2_P5E.1_K5.1_C5.1_H5.1_A5.1_[T5C]_[A7T]_F5.1_[T8A]_[T9C]_[A10G]_T5.1 (ssRNA) RNA: UUUGAUUAAUAUGAUAUCGUUCUUUCUUGUACUUACGUUCUUUCUCGAUAUCAUAUUAAUCUUU | 623 nM
10 | Ic_S2_P5E.1_K5.1_C5.1_H5.1_A5.1_[A7C]_F5.1_[T8C]_[T9A]_T5.1 (ssRNA) RNA: UUUGAUUAAUAUGAUAUCGUUCUUUCUUGUAUUCCAAUUCUUUCUCGAUAUCAUAUUAAUCUUU | 622 nM
11 | Ic_S2_P5E.1_K5.1_C5.1_H5.1_A5.1_[T5A]_[A7C]_F5.1_[T9A]_T5.1 (ssRNA) RNA: UUUGAUUAAUAUGAUAUCGUUCUUUCUUGUAAUCUAAUUCUUUCUCGAUAUCAUAUUAAUCUUU | 8.11 nM
12 | Ic_S2_P5E.1_K5.1_C5.1_H5.1_A5.1_[T5C]_[T6C]_[A7C]_F5.1_[A10T]_T5.1 (ssRNA) RNA: UUUGAUUAAUAUGAUAUCGUUCUUUCUUGUACCCUUUUUCUUUCUCGAUAUCAUAUUAAUCUUU | 8.63 nM
13 | Ic_S2_P5E.1_K5.1_C5.1_H5.1_A5.1_[T5A]_F5.1_[T8A]_[A10G]_T5.1 (ssRNA) RNA: UUUGAUUAAUAUGAUAUCGUUCUUUCUUGUAAUAAUGUUCUUUCUCGAUAUCAUAUUAAUCUUU | 183 nM
14 | Ic_S2_P5E.1_K5.1_C5.1_H5.1_A5.1_[T5A]_[A7T]_F5.1_[T9C]_[A10G]_T5.1 (ssRNA) RNA: UUUGAUUAAUAUGAUAUCGUUCUUUCUUGUAAUUUCGUUCUUUCUCGAUAUCAUAUUAAUCUUU | 108 nM
15 | Ic_S2_P5E.1_K5.1_C5.1_H5.1_A5.1_[T5C]_[T6A]_[A7T]_F5.1_[T9A]_[A10C]_T5.1 (ssRNA) RNA: UUUGAUUAAUAUGAUAUCGUUCUUUCUUGUACAUUACUUCUUUCUCGAUAUCAUAUUAAUCUUU | 0.894 nM
16 | Ic_S2_P5E.1_K5.1_C5.1_H5.1_A5.1_[T5A]_[A7T]_F5.1_[T9G]_[A10C]_T5.1 (ssRNA) RNA: UUUGAUUAAUAUGAUAUCGUUCUUUCUUGUAAUUUGCUUCUUUCUCGAUAUCAUAUUAAUCUUU | 70.7 nM
17 | Ic_S2_P5E.1_K5.1_C5.1_H5.1_A5.1_[T5G]_F5.1_[T8C]_[T9C]_[A10T]_T5.1 (ssRNA) RNA: UUUGAUUAAUAUGAUAUCGUUCUUUCUUGUAGUACCUUUCUUUCUCGAUAUCAUAUUAAUCUUU | 413 nM
18 | Ic_S2_P5E.1_K5.1_C5.1_H5.1_A5.1_[T6A]_[A7C]_F5.1_[T8C]_[T9C]_[A10G]_T5.1 (ssRNA) RNA: UUUGAUUAAUAUGAUAUCGUUCUUUCUUGUAUACCCGUUCUUUCUCGAUAUCAUAUUAAUCUUU | 69.2 nM
19 | Ic_S2_P5E.1_K5.1_C5.1_H5.1_A5.1_[T5A]_[T6C]_F5.1_[T8C]_[T9C]_T5.1 (ssRNA) RNA: UUUGAUUAAUAUGAUAUCGUUCUUUCUUGUAACACCAUUCUUUCUCGAUAUCAUAUUAAUCUUU | 278 nM
20 | Ic_S2_P5E.1_K5.1_C5.1_H5.1_A5.1_[A7C]_F5.1_[T8G]_[A10T]_T5.1 (ssRNA) RNA: UUUGAUUAAUAUGAUAUCGUUCUUUCUUGUAUUCGUUUUCUUUCUCGAUAUCAUAUUAAUCUUU | 67.8 nM
21 | Ic_S2_P5E.1_K5.1_C5.1_H5.1_A5.1_[T6C]_[A7G]_F5.1_[T8A]_[A10C]_T5.1 (ssRNA) RNA: UUUGAUUAAUAUGAUAUCGUUCUUUCUUGUAUCGAUCUUCUUUCUCGAUAUCAUAUUAAUCUUU | 1490 nM
22 | Ic_S2_P5E.1_K5.1_C5.1_H5.1_A5.1_[T6C]_[A7T]_F5.1_[T9A]_[A10T]_T5.1 (ssRNA) RNA: UUUGAUUAAUAUGAUAUCGUUCUUUCUUGUAUCUUAUUUCUUUCUCGAUAUCAUAUUAAUCUUU | 1.53 nM

Row | Binder | Kd
23 | Ic_S2_P5E.1_K5.1_C5.1_H5.1_A5.1_[T5C]_[T6C]_[A7C]_F5.1_[T8A]_[T9G]_[A10C]_T5.1 (ssRNA) RNA: UUUGAUUAAUAUGAUAUCGUUCUUUCUUGUACCCAGCUUCUUUCUCGAUAUCAUAUUAAUCUUU | 768 nM
24 | Ic_S2_P5E.1_K5.1_C5.1_H5.1_A5.1_[T6C]_[A7T]_F5.1_[T9C]_[A10C]_T5.1 (ssRNA) RNA: UUUGAUUAAUAUGAUAUCGUUCUUUCUUGUAUCUUCCUUCUUUCUCGAUAUCAUAUUAAUCUUU | 14 nM
25 | Ic_S2_P5E.1_K5.1_C5.1_H5.1_A5.1_[T5A]_[A7T]_F5.1_[T8C]_[T9A]_[A10C]_T5.1 (ssRNA) RNA: UUUGAUUAAUAUGAUAUCGUUCUUUCUUGUAAUUCACUUCUUUCUCGAUAUCAUAUUAAUCUUU | 599 nM
26 | Ic_S2_P5E.1_K5.1_C5.1_H5.1_A5.1_[T5C]_[T6A]_F5.1_[T9C]_[A10T]_T5.1 (ssRNA) RNA: UUUGAUUAAUAUGAUAUCGUUCUUUCUUGUACAAUCUUUCUUUCUCGAUAUCAUAUUAAUCUUU | 7.59 nM
27 | Ic_S2_P5E.1_K5.1_C5.1_H5.1_A5.1_[T6C]_F5.1_[T9G]_[A10C]_T5.1 (ssRNA) RNA: UUUGAUUAAUAUGAUAUCGUUCUUUCUUGUAUCAUGCUUCUUUCUCGAUAUCAUAUUAAUCUUU | 12.1 nM
28 | Ic_S2_P5E.1_K5.1_C5.1_H5.1_A5.1_[T5G]_[A7G]_F5.1_[T8G]_[T9C]_[A10C]_T5.1 (ssRNA) RNA: UUUGAUUAAUAUGAUAUCGUUCUUUCUUGUAGUGGCCUUCUUUCUCGAUAUCAUAUUAAUCUUU | > 2300 nM
29 | Ic_S2_P5E.1_K5.1_C5.1_H5.1_A5.1_[T6C]_[A7G]_F5.1_[T8C]_[T9C]_T5.1 (ssRNA) RNA: UUUGAUUAAUAUGAUAUCGUUCUUUCUUGUAUCGCCAUUCUUUCUCGAUAUCAUAUUAAUCUUU | 844 nM
30 | Ic_S2_P5E.1_K5.1_C5.1_H5.1_A5.1_[T6C]_[A7C]_F5.1_[T8C]_T5.1 (ssRNA) RNA: UUUGAUUAAUAUGAUAUCGUUCUUUCUUGUAUCCCUAUUCUUUCUCGAUAUCAUAUUAAUCUUU | 9.09 nM
31 | Ic_S2_P5E.1_K5.1_C5.1_H5.1_A5.1_[T5C]_[T6C]_F5.1_[T8C]_[T9C]_[A10G]_T5.1 (ssRNA) RNA: UUUGAUUAAUAUGAUAUCGUUCUUUCUUGUACCACCGUUCUUUCUCGAUAUCAUAUUAAUCUUU | 619 nM
32 | Ic_S2_P5E.1_K5.1_C5.1_H5.1_A5.1_[T5C]_[T6C]_F5.1_[T9C]_[A10C]_T5.1 (ssRNA) RNA: UUUGAUUAAUAUGAUAUCGUUCUUUCUUGUACCAUCCUUCUUUCUCGAUAUCAUAUUAAUCUUU | 8.45 nM
33 | Ic_S2_P5E.1_K5.1_C5.1_H5.1_A5.1_[T5G]_[T6C]_[A7T]_F5.1_[T8G]_[T9G]_[A10T]_T5.1 (ssRNA) RNA: UUUGAUUAAUAUGAUAUCGUUCUUUCUUGUAGCUGGUUUCUUUCUCGAUAUCAUAUUAAUCUUU | 679 nM
34 | Ic_S2_P5E.1_K5.1_C5.1_H5.1_A5.1_[A7T]_F5.1_[T9C]_[A10T]_T5.1 (ssRNA) RNA: UUUGAUUAAUAUGAUAUCGUUCUUUCUUGUAUUUUCUUUCUUUCUCGAUAUCAUAUUAAUCUUU | 16.4 nM
35 | Ic_S2_P5E.1_K5.1_C5.1_H5.1_A5.1_[T5C]_[T6G]_[A7T]_F5.1_[T8G]_[A10T]_T5.1 (ssRNA) RNA: UUUGAUUAAUAUGAUAUCGUUCUUUCUUGUACGUGUUUUCUUUCUCGAUAUCAUAUUAAUCUUU | 22.9 nM
36 | Ic_S2_P5E.1_K5.1_C5.1_H5.1_A5.1_[T5C]_[A7G]_F5.1_[T9G]_[A10T]_T5.1 (ssRNA) RNA: UUUGAUUAAUAUGAUAUCGUUCUUUCUUGUACUGUGUUUCUUUCUCGAUAUCAUAUUAAUCUUU | 50.8 nM
37 | Ic_S2_P5E.1_K5.1_C5.1_H5.1_A5.1_[T6A]_F5.1_[T8A]_[T9A]_T5.1 (ssRNA) RNA: UUUGAUUAAUAUGAUAUCGUUCUUUCUUGUAUAAAAAUUCUUUCUCGAUAUCAUAUUAAUCUUU | 34.6 nM
38 | Ic_S2_P5E.1_K5.1_C5.1_H5.1_A5.1_[T6C]_[A7T]_F5.1_[T8A]_T5.1 (ssRNA) RNA: UUUGAUUAAUAUGAUAUCGUUCUUUCUUGUAUCUAUAUUCUUUCUCGAUAUCAUAUUAAUCUUU | 3.38 nM
39 | Ic_S2_P5E.1_K5.1_C5.1_H5.1_A5.1_[T6A]_[A7T]_F5.1_[T9C]_[A10C]_T5.1 (ssRNA) RNA: UUUGAUUAAUAUGAUAUCGUUCUUUCUUGUAUAUUCCUUCUUUCUCGAUAUCAUAUUAAUCUUU | 2.26 nM
40 | Ic_S2_P5E.1_K5.1_C5.1_H5.1_A5.1_[T5C]_[A7T]_F5.1_[T8G]_[A10T]_T5.1 (ssRNA) RNA: UUUGAUUAAUAUGAUAUCGUUCUUUCUUGUACUUGUUUUCUUUCUCGAUAUCAUAUUAAUCUUU | 28.3 nM
41 | Ic_S2_P5E.1_K5.1_C5.1_H5.1_A5.1_[T5C]_[T6A]_[A7C]_F5.1_[T8A]_[A10G]_T5.1 (ssRNA) RNA: UUUGAUUAAUAUGAUAUCGUUCUUUCUUGUACACAUGUUCUUUCUCGAUAUCAUAUUAAUCUUU | 114 nM
42 | UCUCUUAGUAUAUUGUCUCUU (ssRNA) [Ib_S1_P4E.1_K4.1_C4.1_H4.1_[T1A]_A4.1_F4.1_[A9G]_T4.1] | 631 nM
43 | UCUCUUGGUAUAUUUUCUCUU (ssRNA) [Ib_S1_P4E.1_K4.1_C4.1_H4.1_[T1G]_A4.1_F4.1_[A9T]_T4.1] | 1210 nM
